Where two headings read alike, the source gives them in different places.
Test system: SARS-CoV-2
[1] = High risk population, Brazil, N = 698
[2] = High risk population, Brazil, N = 698 vs placebo N = 827
[3] = ITT population (Table 20), n=916 vs placebo 1003
[4] = ITT preliminary, n=916 vs placebo 1020

B1: pegylated interferon lambda-1a (protein)
chain: MKPTTTGKGCHIGRFKSLSPQELASFKKARDALEESLKLKNWSCSSPVFPGNWDLRLLQVRERPVALEAELALTLKVLEAAAGPALEDVLDQPLHTLHHILSQLQACIQPQPTAGPRPRGRLHHWLHRLQEAPKKESAGCLEASVTFNLFRLLTRDLKYVADGNLSLRTSTHPEST
modifications: PEG
notes: 180 mcg subcutaneous injection
Hospitalization or ER (any duration) for COVID-19: total [1]: 76
Hospitalization or ER >6 h for COVID-19: percentage [1]: (3.2%)
Hospitalization or ER >6 h for COVID-19: total [1]: 22
Mechanical ventilation: percentage [1]: (0.6%)
Mechanical ventilation: total [1]: 4
All cause ER visit >6 h, hospitalization, or death: Pr (Superiority) [2]: 0.981
All cause ER visit >6 h, hospitalization, or death: RR (95% CrI), estimated treatment effect [2]: 0.64 (0.42, 0.97)
All cause ER visit, hospitalization, or death: Pr (Superiority) [2]: 0.883
All cause ER visit, hospitalization, or death: RR (95% CrI), estimated treatment effect [2]: 0.86 (0.68, 1.10)
All cause death or hospitalization due to COVID-19: Pr (Superiority) [2]: 0.924
All cause death or hospitalization due to COVID-19: RR (95% CrI), estimated treatment effect [2]: 0.69 (0.41, 1.14)
Days of hospitalization: MD (95% CrI), estimated treatment effect [2]: −1.39 (−4.38, 1.20)
Days of hospitalization: Pr (Superiority) [2]: 0.8509
Days on mechanical ventilation: MD (95% CrI), estimated treatment effect [2]: −4.47 (−6.89, 3.09)
Days on mechanical ventilation: Pr (Superiority) [2]: 0.9052
Days to death for COVID-19: HR (95% CrI), estimated treatment effect [2]: 0.23 (0.01, 1.79)
Days to death for COVID-19: Pr (Superiority) [2]: 0.9080
Days to hospitalization for COVID-19: HR (95% CrI), estimated treatment effect [2]: 0.58 (0.33, 0.98)
Days to hospitalization for COVID-19: Pr (Superiority) [2]: 0.9780
Days to hospitalization or ER visit >6 h for COVID-19: HR (95% CrI), estimated treatment effect [2]: 0.47 (0.28, 0.76)
Days to hospitalization or ER visit >6 h for COVID-19: Pr (Superiority) [2]: 0.9992
Days to hospitalization or death for COVID-19: HR (95% CrI), estimated treatment effect [2]: 0.62 (0.35, 1.05)
Days to hospitalization or death for COVID-19: Pr (Superiority) [2]: 0.9610
Days to recovery: HR (95% CrI), estimated treatment effect [2]: 0.93 (0.83, 1.04)
Days to recovery: Pr (Superiority) [2]: 0.8862
Death due to COVID-19: Pr (Superiority) [2]: 0.845
Death due to COVID-19: RR (95% CrI), estimated treatment effect [2]: 0.42 (0.05, 2.08)
Death or hospitalization due to COVID-19: Pr (Superiority) [2]: 0.961
Death or hospitalization due to COVID-19: RR (95% CrI), estimated treatment effect [2]: 0.63 (0.37, 1.05)
Hospitalization for COVID-19 (excluding those resulting in death): Pr (Superiority) [2]: 0.928
Hospitalization for COVID-19 (excluding those resulting in death): RR (95% CrI), estimated treatment effect [2]: 0.67 (0.39, 1.14)
Hospitalization or ER (any duration) for COVID-19: Pr (Superiority) [2]: 0.991
Hospitalization or ER (any duration) for COVID-19: RR (95% CrI), estimated treatment effect [2]: 0.72 (0.56, 0.95)
Hospitalization or ER >6 h for COVID-19: Pr (Superiority) [2]: 0.999
Hospitalization or ER >6 h for COVID-19: RR (95% CI), estimated treatment effect [2]: 0.49 (0.30, 0.78)
Mechanical ventilation: Pr (Superiority) [2]: 0.717
Mechanical ventilation: RR (95% CrI), estimated treatment effect [2]: 0.72 (0.21, 2.21)
All cause ER visit >6 h, hospitalization, or death, % of patients [3]: (3.7%)
All cause ER visit >6 h, hospitalization, or death, Pr (Superiority) [3]: 0.987
All cause ER visit >6 h, hospitalization, or death, RR (95% CrI) vs placebo [3]: 0.64 (0.42, 0.95)
All cause ER visit, hospitalization, or death, % of patients [3]: (13.5%)
All cause ER visit, hospitalization, or death, Pr (Superiority) [3]: 0.831
All cause ER visit, hospitalization, or death, RR (95% CrI) vs placebo [3]: 0.90 (0.72, 1.12)
All cause death or hospitalization due to COVID-19, % of patients [3]: (2.6%)
All cause death or hospitalization due to COVID-19, RR (95% CrI) vs placebo [3]: 0.66 (0.40, 1.07)
Days of hospitalization, IRR (95% CrI) vs placebo [3]: −1.02 (−3.86, 1.37)
Days on mechanical ventilation, IRR (95% CrI) vs placebo [3]: −4.47 (−6.89, 3.09)
Days to death for COVID-19, HR (95% CrI) vs placebo [3]: 0.22 (0.01, 1.64)
Days to hospitalization for COVID-19, HR (95% CrI) vs placebo [3]: 0.57 (0.33, 0.95)
Days to hospitalization or ER visit >6 h for COVID-19, HR (95% CrI) vs placebo [3]: 0.47 (0.29, 0.73)
Days to hospitalization or ER visit >6 h for COVID-19, Pr (Superiority) [3]: 0.999
Days to hospitalization or death for COVID-19, HR (95% CrI) vs placebo [3]: 0.59 (0.35, 1.00)
Days to recovery, HR (95% CrI) vs placebo [3]: 0.94 (0.85, 1.05)
Death due to COVID-19, % of patients [3]: (0.1%)
Death due to COVID-19, RR (95% CrI) vs placebo [3]: 0.40 (0.05, 1.95)
Death or hospitalization due to COVID-19, % of patients [3]: (2.4%)
Death or hospitalization due to COVID-19, RR (95% CrI) vs placebo [3]: 0.61 (0.36, 0.99)
Hospitalization or ER (any duration) for COVID-19, % of patients [3]: (10.8%)
Hospitalization or ER (any duration) for COVID-19, Pr (Superiority) [3]: 0.981
Hospitalization or ER (any duration) for COVID-19, RR (95% CrI) vs placebo [3]: 0.78 (0.61, 0.99)
Hospitalization or ER >6 h for COVID-19, % of patients [3]: (2.7%)
Hospitalization or ER >6 h for COVID-19, Pr (Superiority) [3]: 0.999
Hospitalization or ER >6 h for COVID-19, RR (95% CI) vs placebo [3]: 0.49 (0.30, 0.76)
Mechanical ventilation, % of patients [3]: (0.4%)
Mechanical ventilation, RR (95% CrI) vs placebo [3]: 0.66 (0.20, 2.03)
Days to hospitalization for COVID-19, IQR (ITT preliminary, n=916): 3.0
Days to hospitalization for COVID-19, Mean (ITT preliminary, n=916): 5.10
Days to hospitalization for COVID-19, Median (ITT preliminary, n=916): 4.0
Days to hospitalization or ER visit ≥6 h for COVID-19, IQR (ITT preliminary, n=916): 3.0
Days to hospitalization or ER visit ≥6 h for COVID-19, Mean (ITT preliminary, n=916): 5.8
Days to hospitalization or ER visit ≥6 h for COVID-19, Median (ITT preliminary, n=916): 4.0
Days until death due to COVID-19, IQR (ITT preliminary, n=916): 16.0
Days until death due to COVID-19, Mean (ITT preliminary, n=916): 22
Days until death due to COVID-19, Median (ITT preliminary, n=916): 22.0
Any cause Death, % of patients (ITT preliminary, n=916, 28 days): (0.3%)
ER visits over 6 hrs, % of patients [4]: 0.7%
Relative Reduction in Risk, Deaths [4]: 0.72
Relative Reduction in Risk, ER visits over 6 hrs [4]: 0.68
Relative Reduction in Risk, Hospitalizations [4]: 0.43
Relative Reduction in Risk, Hospitalizations or ER visits over 6 hrs [4]: 0.50
Death due to COVID-19, RR (95% CrI) vs placebo (ITT preliminary, n=916 vs placebo 1020, 28 days): 0.40 (0.05, 2.00)

From US20230201308A1, “TREATMENT OF CORONAVIRUS INFECTION WITH […]” (Eiger Biopharmaceuticals, Inc., priority 2020, published 2023)
